Results reported in patent publication US20240150744A1, “ACYL ACTIVATING ENZYME AND A TRANSGENIC CELL, TISSUE, AND ORGANISM COMPRISING SAME” (YEDA RESEARCH AND DEVELOPMENT CO. LTD., priority 2021, published 2024).
Each block holds one molecule with its values, some of them ahead of it.

Test: AAE enzyme assay (acyl-CoA synthetase assay) of purified recombinant HuAAE proteins with an array of substrates
Format: biochemical
Settings: purified recombinant enzyme from E. coli, UPLC-MS/MS peak area (FIG. 6); for activity towards butyric acid (formation of butyryl CoA): substrate butyric acid
Experimental: FIG. 6 includes vertical bar graphs showing recombinant enzyme assays of purified H. umbraculigerum acyl activating enzyme (HuAAE) proteins produced in Escherichia coli cells. Peak area is shown. Various alkyl (short-and medium-chain fatty acids) and aromatic (cinnamic and coumaric acids) substrates were used in the enzyme assays.
All AAE genes from H. umbraculigerum were individually cloned into the pET28b vector and expressed in E. coli BL21 (DE3) cells. Bacterial cells were grown in LB medium at 37° C. When cultures reached Absorbance 600=0.6, protein expression was induced with 200 μM of isopropyl-1-thio-β-d-galactopyranoside (IPTG) at 15° C., for 24 h. Bacterial cells were lysed by sonication in 50 mM Tris-HCl pH 7.5, 500 mM NaCl, 1 mM PMSF, 10% glycerol and protease inhibitor cocktail (Sigma Aldrich). An aliquot of whole-cell extract was kept for further analysis. Soluble protein was purified on Ni-NTA agarose beads (Adar Biotech) and eluted with 300 mM imidazole in buffer containing 50 mM NaH2PO4 pH-7.5 and 300 mM NaCl. The whole-cell extract, and the eluted fractions were analyzed by SDS-PAGE stained with InstatBlue.
Acyl-CoA synthetase assays were performed in a 20 μl reaction mix that contained 0.1 μg recombinant AAE, 50 mM HEPES pH 9, 8 mM ATP, 10 mM MgCl2, 0.5 mM CoA and 4 mM sodium hexanoate for 10 min at 40° C. Reactions were terminated with 2 μl of 1 M HCl and stored on ice until analysis. After centrifugation at 15 000 g for 5 min at 4° C., the samples were diluted 1:100 in water and analyzed by UPLC-MS/MS (Stout et al., 2012). injections were performed on a UPLC (Waters) connected to a Triple Quad detector (TQ-S, Waters) in multiple reaction monitoring (MRM) mode. The chromatographic separation was achieved using a similar column as previously described. The mobile phase consisted of an aqueous buffer pH 7.0 (10 mM Ammonium Acetate, 5 mM NH4HCO2, phase A) and acetonitrile (phase B). The flow rate was 0.3 ml min^−1, and the column temperature was kept at 25° C. Compounds were analyzed using a 15 min multistep gradient method: initial conditions were 1% B raised to 35% B until 10.5 min, and then raised to 100% B until 11 min, held at 100% B for 1 min, decreased to 1% B until 12.5 min, and held at 1% B until 15 min for re-equilibration of the system. The instrument was operated in positive mode with a capillary voltage of 3.0 kV, and a cone voltage of 50 V. Metabolite identity was confirmed with authentic standards (Sigma Aldrich). Two different transitions were used for analysis of: acetyl-CoA (810.52>303.30, 27.0V; 810.52>428.25, 24.0V); butyryl-CoA (838.58>331.30, 28.0 V; […]); hexanoyl-CoA (866.65>359.40, 28.0 V; 866.65 >428.25, 26.0 V); octanoyl-CoA (894.65>387.55, 30.0 V; 894.65>428.25, 28.0 V); coumaroyl-CoA (914.59>407.37, 30.0 V; 914.59>428.25, 28.0 V); cinnamoyl-CoA (898.59>391.37, 30.0 V; 898.59>428.25, 28.0 V).
Next, the inventors individually recombinantly expressed six of the eleven AAEs, each in E. coli, purified respective proteins, and examined their activity using array of substrates (acetic acid, butyric acid, hexanoic acid, octanoic acid, cinnamic acid and coumaric acid).

B3: HuAAE2: H. umbraculigerum acyl activating enzyme, recombinantly expressed in E. coli and purified (protein)
chain: MDALRKPNSANSSPLTPIGFLERAAVVFANSPSIVYNNLIYTWSDTFHRCLRLASSISRLAIRKGDVVSVLAPNIPAIYELHFGITMTGAIINTINTRLDARTISILLCHSESKLVFVDYQLTRLIREAVSLMPDACVPPQLVLIVDDGHNLSLLSDQFINTYEAMVETGDPGFNWVRPDSDWDPLTLNYTSGTTSSPKGVVNSHRGSFIVAFDSLLEWHVPKQPIMLWTLPMFHANGWSFVWGMAAVGGTNVCLRKFDATIIYDTIRNHHVTHMCGAPVVLNMLSEGKPLEHTVHIMTAGAPPPAAVLLRTESLGFEVTHGFGMTETGGLVVSCSWKKEWNRLPVTEKARLKARQGVRTLGMTEVDIVDPESGVSVTRDGLTQGELVLRGGSIMLGYLKDPETTNKSVKNGWFYTGDVAVMHPDGYLEIKDRSKDVIISGGENISSVEVESILYQHPAINEAAVVGRPDEFWGESPCAFVSLKDDNGKVAVPTADEIMKFCKGKLPGYMVPKSVVFKKDLPKTSTGKIQKYVLRKLAKDLGFAVKSRI
activity towards butyric acid (formation of butyryl CoA): efficiently produced butyryl CoA

B4: HuAAE3: H. umbraculigerum acyl activating enzyme, recombinantly expressed in E. coli and purified (protein)
chain: MTEEEKNKAESMGIKTYAWSDFLHLGSKNPSELQTPKATDICTIMYTSGTSGDPKGVILTHENATTNIRGVDLFMEQFEDKMTVDDVYISFLPLAHILDRMIEEYFFRSGASVGFYHGDINALKEDLAELKPTFLAGVPRVLEKIHEGVLKGLEEVNPRRRKIFSILYNHKLKYMKAGYKHKYASPLADLLAFRKVKNRLGGRIRLMVSGGAPLSTEIEEFMRVTSCAFVAQGYGLTETCGLATLGFPDEMCMIGTVGSPFVYTELRLEEVSDMGYDPLANPPRGEICVKGKTPFAGYYKNPELTNEVMKDGWFHTGDIGEMQPNGVLKIIDRKKHLIKLSQGEYIALEYLEKVYCITPILEDIWVYGDSFKSSLVAVAVPNKENAEKWADQKGLKVSYSELCTLTQFRDYIQSELKSTAERNKLRGFEHIKAIIVEPRTFEGDQELLTATMKKRRNKLLNRYKEGIDNLYKNLAANKR
activity against acetic acid (formation of acetyl CoA) (substrate acetic acid): great activity

Further lines, results first:

activity towards butyric acid (formation of butyryl CoA): efficiently produced butyryl CoA
B1: HuAAE4: H. umbraculigerum acyl activating enzyme, recombinantly expressed in E. coli and purified; great homology to CsAAE1 (protein)
chain: MVYKSLNSISISDIVNLGISPETATQLHQKLTEIIQIYGFDAPQTWTQISTRILHPDLPFCFHQMMYYGCYVDFGPDPPAWSPDPKDAKLTNIGSLLERRGKEFLGPSYKDPISSYSALQEFSALNLEVFWKTILDEMNITFSVPPKRILVDDLSKESQLLHPGGRWLPGAYVNPARNCLSLSSKRRLSDIAVIWRDEGNDDMPVNKMTFQQLRSEVWLVAYALDTLGVEKGSAIAIDMPMDVKSVVIYLAIVLAGYVVVSIADSFAAGEISTRLVLSKAKAIFTQDLIIRGDRSHPLYSRVVDAQSPLAIVIPTRGSSFSIKLRDGDISWHDFLERANTYRNVEFVAVERPVEAFSNILFSSGTTGEPKAIPWTLATPFKAGADAWCHMDVHKGDVVAWPTNLGWMMGPWLIYASLLNGGSLALYNGSPLTSGFAKFVQDAKVTLLGVIPSIVRAWRTNNSTAGFDWSTIRCFGSTGEASNTDECLWLMGRAHYKPVIEYCGGTEIGGGFITGSLLQPQCLSAFSTPSLGCKLLILGEDGIPIPQNAPGIGELALNPLMFGASSTLLNANHYDVYFKGMPSWNGKVLRRHGDVFERTSKGYYRAHGRADDTMNLGGIKVSSVEIERVCNSIDDRILETAAIGVTPSGGGPERLVIVVAFKDGSGSKPDLIKLKVTLNSALQKNLNPLFKVSDVVPFPSLPRTATNKVMRRVLRQQLTQIGQNSKL

activity towards cinnamic acid (formation of cinnamoyl CoA) (substrate cinnamic acid): reacted
activity towards coumaric acid (formation of coumaroyl CoA) (substrate coumaric acid): reacted
activity towards hexanoic acid (substrate hexanoic acid): very high activity
activity towards octanoic acid (substrate octanoic acid): very high activity
B2: HuAAE6: H. umbraculigerum acyl activating enzyme, recombinantly expressed in E. coli and purified; similar to long-chain acyl-CoA synthetases (protein)
chain: MSVYTVKVEDSRAASGETPSAGPVYRCIYAKDALMELPPGYESPWDFFSESVKRNPKNPALGRRQVIDGKAGGYSWLSYQEAYNSALRIASAIRSRSVNPGDRCGIYGPNCPEWIISMEACNSNGITYVPLYDTLGANAVEYIINHAEISLVFVQENKLSAILSCLPNCSSNLKTIVSFGKFSESQKNEAMEHGVDCFSWEEFSSMGNLEDELPAKNKTDICTIMYTSGTTGEPKGVVLSNRAFMSEVLSMHELLIETDKPGTEEDTYFSFLPLAHIFDQIMETYFIYSGASIGFWQGDIRYLIEDLLVLQPTIFCGVPRVYDRIYTGIMAKISTGGAIRKALFDFAYNYKLRNLEKGIQQDKSAPLLDKLVFDKIKQGFGGRVRLMLSGAAPLPKHVEEFLRVTCCTVLSQGYGLTESCGGCFTSIANVYSMIGTVGVPMTTIEARLESVPEMGYDALSSVPCGEICLRGNTLFSGYHKRDDLTDAVLVDGWFHTGDIGEWQADGAMKIIDRKKNIFKLSQGEYVAVESIESTYSRCPLVTSIWVYGNSFESFLVAVVVPDRVAVEEFAAKNNESGDYASLCKNPNVRKYVLEELNAEAQCNKLRGFEMLKAVHLDPVPFDFERDLITPTFKLKRQQLLKYYKDCVEQLYAEAKTSKK
